# Key:
# [1] = system: WBC; assay: Cyclophosphamide low-leucocyte mice model, WBC; assay type: in vivo; design: unit not given here
# Experimental: rLZ-8 preparation of sterile saline. Divide them into 5 μg·kg^−1, 2.5 μg√kg^−1, 1.25 μg·kg^−1, 0.62 μg·kg^−1 dose groups.
# Genlei™ Scimax™ [Recombinant human granulocyte colony-stimulating factor injection (rhG-CSF)], production lot: 20060403; 75 μg/vial is prepared with sterile normal saline into the preparation of 3.2 μg·kg^−1, 0.2 ml/vial.
# Cyclophosphamide (CP) for injection (the production lot number 050216; 200 mg/vial) is prepared with sterile normal saline into the preparation of 12.5 mg·kg^−1, 0.2 ml/vial.
# Normal control group, several protein dose groups, positive control group (Genlei™ Scimax™).
# (§1) Excluding the normal control group (given same normal saline), each group of mice were given tail vein injection of cyclophosphamide, 1.25 μg·kg^−1, 0.2 ml/vial, for 3 consecutive days. On 3rd day, rat tail venous blood sampling, sent to Jilin University First Hospital laboratory, cell analyze the number of WBC. After successful modeling, they were given to the above groups respective dose of rLZ-8 and positive drugs (Genlei™ Scimax™) treatment, the normal control group and CP groups were given same normal saline, on the 3rd, 7th and 14th day of the treatment to draw venous blood from mice tail respectively, sent to Jilin University First Hospital testing the numbers of WBC. Compare WBC changes before and after the treatment for analysis of drug efficacy.
# [2] = system: Human Promyelocytic Leukemia NB4 Cells; assay: Killing effect of rLZ-8 on NB4 cells (MTT, OD570nm); assay type: cell-based
# Experimental: After filtration and degerming, we prepared 8 concentrations using IMDM culture medium which are respectively 0.78 μg·ml^−1, 1.56 μg·ml^−1, 3.125 μg·ml^−1, 6.25 μg·ml^−1, 12.5 μg·ml^−1, 25 μg·ml^−1, 50 μg·ml^−1, 100 μg·ml^−1.
# On 96-orifice culture medium plate, the pilot orifice plus NB4 tumor cells 0.1 ml and rLZ-8 0.1 ml, rLZ-8 concentrates from low to high; negative control group plus NB4 tumor cells and culture medium of 0.1 ml respectively; positive drug control group arsenic trioxide As2O3; make six-aperture multipunches for each group. Placing in 37° C., 5% CO2 incubator 48 h, adding MTT15 μl (5 mg ml^−1) prior to the termination of 4 h, after the termination of cell culture by adding 100 μl 0.1 mol L^−1 hydrochloric acid isopropyl alcohol, testing on the enzyme-linked immunosorbent OD570nm values.
# [3] = system: WBC; assay: Cyclophosphamide low-leucocyte rat model, WBC; assay type: in vivo, rats; design: unit not given here
# Experimental: rLZ-8 preparation of sterile saline. Divide them into 20 μg·kg^−1, 10 μg·kg^−1, 5 μg·kg^−1, 2.5 μg·kg^−1, 1.25 μg·kg^−1, 0.625 μg·kg^−1, 0.31 μg·kg^−1 dose groups.
# Genlei™ Scimax™ [Recombinant human granulocyte colony-stimulating factor injection (rhG-CSF)], production lot: 20060403; 75 μg/vial is prepared with sterile normal saline into the preparation of 9.45 μg·ml^−1, 0.1 ml/vial.
# Cyclophosphamide (CP), the production lot number 050216; 200 mg/vial is prepared with sterile normal saline into the preparation of 20 mg·ml^−1, 0.1 ml/vial, namely, 49 mg·kg^−1.
# Normal control group, protein low-dose group, protein medium-dose group, protein high-dose group, positive control group (Genlei™ Scimax™)
# as §1, with “rats” for “mice”, “20 mg·ml^−1, 0.1” for “1.25 μg·kg^−1, 0.2”
# [4] = system: mouse peritoneal S180 tumor cells; assay: S180 ascites tumor inhibition experiment; assay type: in vivo, Mice; conditions: rLZ-8 0.25-1 mg·kg^−1 tail venous injection, 10 days
# Experimental: Treatment after 24 h of vaccination. […] Daily weighing, observe the weight changes of mice, drawing weight growth curves.
# [5] = system: systemic allergic reaction caused by BSA; assay: Systemic allergic reaction in mice caused by BSA; conditions: for Death number/total / Sensitization number/total: sensitization BSA (i.p.)
# Experimental: Prepare rLZ-8 700 μg/ml^−1 with saline and Aluminium hydroxide with PBS buffer. Male mice, 15 vial, were divided into 4 groups: two rLZ-8 dosage groups, positive group, normal control group. […] Positive reaction standard: tic or death. Negative reaction standard: normal.
# [6] = rLZ-8 dose 2, shock BSA-rLZ-8 (i.v.)
molecule,measurement,setting,value
"rLZ-8: Recombinant Ganoderma Lucidum Immune Regulatory Protein expressed in Pichia pastoris (protein, UniProt P14945 2-111, looked up) Immunomodulatory protein Ling …: SDTALIFRLAWDVKKLSFDYTPNWGRGNPNNFIDTVTFPKVLTDKAYTYRVAVSGRNLGVKPSYAVESDGSQKVNFLEYNSGYGIADTNTIQVFVVDPDTNNDFIIAQWN","WBC, 3rdday of medication",[1]; rLZ-8 0.62 μg·kg−1,6.4 ± 0.41
same,"WBC, 7thday of medication",[1]; rLZ-8 0.62 μg·kg−1,27.2 ± 0.10
same,"WBC, 14thday of medication",[1]; rLZ-8 0.62 μg·kg−1,13.9 ± 0.17
same,"WBC, 3rdday of medication",[1]; rLZ-8 1.25 μg·kg−1,8.1 ± 0.17
same,"WBC, 7thday of medication",[1]; rLZ-8 1.25 μg·kg−1,19.7 ± 0.17
same,"WBC, 14thday of medication",[1]; rLZ-8 1.25 μg·kg−1,13.9 ± 0.14
same,"WBC, 3rdday of medication",[1]; rLZ-8 2.5 μg·kg−1,6.6 ± 0.77
same,"WBC, 7thday of medication",[1]; rLZ-8 2.5 μg·kg−1,22.8 ± 0.15
same,"WBC, 14thday of medication",[1]; rLZ-8 2.5 μg·kg−1,15.2 ± 0.11
same,"WBC, 3rdday of medication",[1]; rLZ-8 5 μg·kg−1,5.0 ± 0.12
same,"WBC, 7thday of medication",[1]; rLZ-8 5 μg·kg−1,20.3 ± 0.11
same,"WBC, 14thday of medication",[1]; rLZ-8 5 μg·kg−1,14.3 ± 0.21
same,lethal effect in vitro on NB4 tumor cells (in words),[2]; 0.78-100 μg·ml^−1,strong lethal effect
same,Growth inhibition rate (%),"[2]; rLZ-8 0.78 μg ml^−1, 48 h",39%
same,OD570 nm,"[2]; rLZ-8 0.78 μg ml^−1, 48 h",0.71 ± 0.03
same,Growth inhibition rate (%),"[2]; rLZ-8 1.56 μg ml^−1, 48 h",44%
same,OD570 nm,"[2]; rLZ-8 1.56 μg ml^−1, 48 h",0.65 ± 0.05
same,Growth inhibition rate (%),"[2]; rLZ-8 3.125 μg ml^−1, 48 h",54%
same,OD570 nm,"[2]; rLZ-8 3.125 μg ml^−1, 48 h",0.53 ± 0.04
same,Growth inhibition rate (%),"[2]; rLZ-8 6.25 μg ml^−1, 48 h",61%
same,OD570 nm,"[2]; rLZ-8 6.25 μg ml^−1, 48 h",0.45 ± 0.02
same,Growth inhibition rate (%),"[2]; rLZ-8 12.5 μg ml^−1, 48 h",74%
same,OD570 nm,"[2]; rLZ-8 12.5 μg ml^−1, 48 h",0.30 ± 0.04
same,Growth inhibition rate (%),"[2]; rLZ-8 25 μg ml^−1, 48 h",81%
same,OD570 nm,"[2]; rLZ-8 25 μg ml^−1, 48 h",0.22 ± 0.01
same,Growth inhibition rate (%),"[2]; rLZ-8 50 μg ml^−1, 48 h",91%
same,OD570 nm,"[2]; rLZ-8 50 μg ml^−1, 48 h",0.11 ± 0.01
same,Growth inhibition rate (%),"[2]; rLZ-8 100 μg ml^−1, 48 h",93%
same,OD570 nm,"[2]; rLZ-8 100 μg ml^−1, 48 h",0.08 ± 0.01
same,"WBC, 3rdday of medication",[3]; rLZ-8 0.31 μg·kg−1,1.9 ± 0.17
same,"WBC, 7thday of medication",[3]; rLZ-8 0.31 μg·kg−1,13.5 ± 0.13
same,"WBC, 14thday of medication",[3]; rLZ-8 0.31 μg·kg−1,11.0 ± 0.31
same,"WBC, 3rdday of medication",[3]; rLZ-8 0.62 μg·kg−1,5.2 ± 0.14
same,"WBC, 7thday of medication",[3]; rLZ-8 0.62 μg·kg−1,12.8 ± 0.74
same,"WBC, 14thday of medication",[3]; rLZ-8 0.62 μg·kg−1,12.1 ± 0.24
same,"WBC, 3rdday of medication",[3]; rLZ-8 1.25 μg·kg−1,2.8 ± 0.12
same,"WBC, 7thday of medication",[3]; rLZ-8 1.25 μg·kg−1,11.0 ± 0.47
same,"WBC, 14thday of medication",[3]; rLZ-8 1.25 μg·kg−1,10.3 ± 0.45
same,"WBC, 3rdday of medication",[3]; rLZ-8 2.5 μg·kg−1,1.7 ± 0.18
same,"WBC, 7thday of medication",[3]; rLZ-8 2.5 μg·kg−1,12.8 ± 0.11
same,"WBC, 14thday of medication",[3]; rLZ-8 2.5 μg·kg−1,10.6 ± 0.29
same,"WBC, 3rdday of medication",[3]; rLZ-8 5 μg·kg−1,2.6 ± 0.64
same,"WBC, 7thday of medication",[3]; rLZ-8 5 μg·kg−1,17.6 ± 0.23
same,"WBC, 14thday of medication",[3]; rLZ-8 5 μg·kg−1,11.2 ± 0.26
same,"WBC, 3rdday of medication",[3]; rLZ-8 10 μg·kg−1,1.6 ± 0.71
same,"WBC, 7thday of medication",[3]; rLZ-8 10 μg·kg−1,15.8 ± 0.33
same,"WBC, 14thday of medication",[3]; rLZ-8 10 μg·kg−1,10.9 ± 0.21
same,"WBC, 3rdday of medication",[3]; rLZ-8 20 μg·kg−1,1.6 ± 0.33
same,"WBC, 7thday of medication",[3]; rLZ-8 20 μg·kg−1,15.8 ± 0.13
same,"WBC, 14thday of medication",[3]; rLZ-8 20 μg·kg−1,9.8 ± 0.19
same,growth of peritoneal S180 tumor cells (body weight curve),[4],inhibited mouse peritoneal S180 tumor cells growth
same,systemic allergic reaction caused by BSA (in words),"[5]; mouse, in vivo",could inhibit systemic allergic reaction
same,Death number/total,"[5]; rLZ-8 dose 1, shock BSA (i.v.)",0/10
same,Sensitization number/total,"[5]; rLZ-8 dose 1, shock BSA (i.v.)",5/10
same,Death number/total,[5]; [6],0/10
same,Sensitization number/total,[5]; [6],9/10

# Reference: patent publication US20110009597A1, “RECOMBINANT GANODERMA LUCIDIUM IMMUNOMODULATORY PROTEIN (rLZ-8) AND USES THEREOF” (priority 2008, published 2011)
